Key:
[1] = assay type: in vitro ADME, human
Description: (§1) The radiochemical purity of ^99mTc-pHLIP (Var7) and ^99mTc-kVar7 was determined by thin-layer chromatography (TLC). A thin polyamide layer was used as the stationary phase, and acetonitrile was used as the developing solvent. A sufficient amount of the labeled product was aspirated through a capillary pipette and spotted at the origin of the thin polyamide layer. The thin polyamide layer was air-dried and vertically placed in a test tube with developing solvent. The saturated thin polyamide layer was removed, dried, and placed on the TLC scanner for testing.
(§2) ^99mTc-pHLIP (Var7) and ^99mTc-kVar7 were placed in PBS at room temperature (25°C) and in fresh human serum at 37°C. Samples were taken to test the radiochemical purity at 1, 4, 6, and 24 h after labeling.

[2] = system: MDA-MB-231 tumors; assay type: in vivo, BALB/c nude mice; settings: 1, 2, 4, and 6 h after tail vein injection of about 11.1 MBq/200 μL, n = 3
Description: (§3) Animal experiments were approved by the ethics committee of Qingdao University, and the management of animals followed ethical standards. We built an MDA-MB-231 tumor model using four- to- five-week-old female BALB/c nude mice (Shanghai SLAC Laboratory Animal Co., Ltd, China). To do so, 0.1 mL of a cell suspension (50 µL PBS + 50 µL Matrigel) containing 1 × 10^6 MDA-MB-231 cells was subcutaneously inoculated into the right axilla of each mouse.
When tumor diameters reached 0.8–1.0 cm, six tumor-bearing nude mice were selected for imaging. Each nude mouse was injected with approximately 11.1 MBq/200 μL ^99mTc-pHLIP (Var7) or ^99mTc-kVar7 through the tail vein. The tumor-bearing mice were anesthetized with 2% isoflurane at 1 h, 2 h, 4 h, and 6 h after injection and were fixed on the imaging bed of a small-animal SPECT/CT imaging system in the prone position. A pinhole collimator was applied. The main parameters were a matrix size of 256 × 256, magnification power of 1.45, and acquisition time at each time point of 10 min.

[3] = In vitro stability in PBS at room temperature (radiochemical purity by TLC); assay type: physicochemical; settings: room temperature (25°C), 24 h after labeling, TLC on polyamide layer with acetonitrile
Description: as §1, §2

[4] = system: MDA-MB-231 cells; assay: Binding of labeled peptides to MDA-MB-231 cells at different pH values; assay type: cell-based, human; settings: n=3
Description: a. When MDA-MB-231 cells grew to more than 90% confluence, they were digested. The cell concentration was adjusted to approximately 1.0 × 10^5 cells/mL, and 1 mL of the cell solution was added to each well of a 12-well plate and cultured overnight in a 37°C cell incubator.
b. The medium was discarded, and the cells were washed with PBS twice. Then, 2 mL of fresh medium and 37 kBq ^99mTc-pHLIP (Var7) or ^99mTc-kVar7 (20-30 μL) were added to each well. We adjusted the pH values of the wells to four levels (pH 7.4, 7.0, 6.5, and 6.0).
c. After culturing for 30, 60, 90, 120, and 180 min, the supernatant was aspirated into a supernatant tube, and each well was washed two times with PBS at the corresponding pH (7.4, 7.0, 6.5, or 6.0). The cleaning solution was also added into the supernatant tube. The cells were digested fully with 0.25% trypsin, and the cell suspension was aspirated into a cell tube and washed twice with PBS. The cleaning solution was also added to the cell tube. A γ counter was applied to measure the radioactivity count of the cell tube (B) and supernatant tube (F). The cell-binding fraction of ^99mTc-pHLIP (Var7) or ^99mTc-kVar7 = B/(B+F) × 100%.

[5] = system: MDA-MB-231 tumors; set-up: species or system BALB/c nude mice; settings: mouse, in vivo
Description: as §3
When tumor diameters reached 0.8–1.0 cm, 24 tumor-bearing nude mice were selected for an in vivo biodistribution experiment. Each nude mouse was injected with approximately 1480 kBq/200 μL ^99mTc-pHLIP (Var7) or ^99mTc-kVar7 through the tail vein. The mice were sacrificed humanely 1 h, 2 h, 4 h, and 6 h after injection, and their tissues and organs, such as the brain, heart, lung, liver, kidney, stomach, small intestine, blood, muscle, bone, and tumor, were weighed and measured for their radioactivity count. The results are expressed as the percentage of injected dose per gram of tissue (%ID/g).

Row | Substance | radiochemical purity in fresh human serum at 24 h [1] [%] | SPECT/CT imaging of tumors [2] | radiochemical purity in PBS at 24 h [3] [%] | binding fraction to MDA-MB-231 cells ([4]; pH 6.0, 180 min, 37 kBq per well, γ counter, B/(B+F) × 100%, mean ± SD) [%] | binding fraction to MDA-MB-231 cells ([4]; pH 6.5, 180 min, 37 kBq per well, γ counter, B/(B+F) × 100%, mean ± SD) [%] | binding fraction to MDA-MB-231 cells ([4]; pH 7.0, 180 min, 37 kBq per well, γ counter, B/(B+F) × 100%, mean ± SD) [%] | binding fraction to MDA-MB-231 cells ([4]; pH 7.4, each time point (30, 60, 90, 120, and 180 min)) | blood clearance [5] | tumor/nontumor (T/NT) ratio, trend over time [5] | binding fraction to MDA-MB-231 cells ([4]; all tested pH values (6.0, 6.5, 7.0, and 7.4), each time point (30, 60, 90, 120, and 180 min))
1 | GaGG-GABA-ACEEQNPWARYLEWLFPTETLLLEL-NH2 [^99mTc-pHLIP (Var7)] | > 96 | clearly imaged at each time point | > 99 | 3.33 ± 0.12 | 3.02 ± 0.04 | 2.87 ± 0.03 | remained low | slow blood clearance | increased over time | –
2 | GaGG-GABA-ACEEQNPWARYLKWLFPTKTLLLKL-NH2 [^99mTc-kVar7, technetium-99m-labeled control peptide kVar7, pH-insensitive, with N4 chelating group and GABA spacer, reference compound] | > 96 | not imaged | > 99 | – | – | – | – | slow blood clearance | no significant increasing trend | remained low

From publication PMC9069674, “Synthesis and Evaluation of Technetium-99m-Labeled pH (Low) Insertion Peptide Variant 7 for Early Diagnosis of MDA-MB-231 Triple-Negative Breast Cancer by Targeting the Tumor Microenvironment” (Frontiers in Oncology, 2022)
